Laboratory results taken from the nanobody polyreactivity screen of Harvey et al. (2022).

Experiment: yeast display, Sf9 membrane polyspecificity reagent, FACS + sequencing; frameworks hold sequencing errors
Procedure, shortened: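 Synthetic nanobody libraries on Saccharomyces cerevisiae BJ5465 were galactose-induced for 36–48 hours, stained 1 hour at 4 °C with 10% biotinylated, detergent-solubilized Sf9 membrane reagent and enriched on streptavidin microbeads. FACS then separated cells into low and high (top ~1%) gates by anti-HA (expression) and streptavidin (reagent binding) fluorescence. Genes were colony-PCR amplified, MiSeq 2 × 250 sequenced and CDR-length filtered. A clone's polyreactivity label is that of its gate of origin.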

In the case of “QVQLVESGGGLVQAGGSLRLTCAASGIIFQNYAMGWYRQAPGKERELVAGITGRGGITYYTDSVKGRFTISRDNAKNTVYVQMNSLKPEDTAVSSCAARRYRFAGDYRMYYWGQGTQVTVSS”, the “polyreactivity (PSR sort gate)” value was “high polyreactivity”.

With “QVQLVESGGGLVQAGGSLRLSCAASGSIFVFNAMGWYRQAPGKERELVAAITSGGRTYYADSVKGRFTISRDNAKNTVYLQMNSLKPEDTAVYYCARRYRARGSMYYWGQGTQVTVSS” the “polyreactivity (PSR sort gate)” value was “high polyreactivity”.

With “QVQLVESGGGLVQAGGSLRLSCAASGFTFRSYTMGWYIQAPGKERELVATITWNGGSTYYADSVKGRFTISRDNAKNTVYLQMNSLKPEDTAVYYCAADPPWNFWNYYRMDYWGQGTQVTVSS” the “polyreactivity (PSR sort gate)” value was “low polyreactivity”.

For “QVQLVESGGGLVQAGGSLRLSCAASGSIFYGYAMGWYRQAPGKERELVAAISLSGGRTYYADSVKGRFTLSRDNAKNPVYLQRNSLKPEDTAVYYCAAQTRSSDGPSWYYYWGQGTQVTVSS”, the “polyreactivity (PSR sort gate)” value was “high polyreactivity”.

For “QVQLVESGGGLVEAGGSLRISCAASGSIFGYYAMGWYRQAPGKERELVAAISYSGGSTNYADSVKGRFTISRDTAKNSVSLQMNSLKPEDTAGYAFATSRSRRYVEFYRYDYWGQGPQVTVSS”, the “polyreactivity (PSR sort gate)” value was “high polyreactivity”.

With “QVQLVESGGGLVQAGGSLRLSCAASGSIFRSYAMGWYRQAPGKEREFVAAINSRSGSTYYADSVKGRFTISRDNAKNTVYFQINSLKPEDTAVYYWAVTYYTRGYGHMDYWGQGTQVTVSS” the “polyreactivity (PSR sort gate)” value was “high polyreactivity”.

In the case of “QVQLVESGGGLVQAGGSLRLTCAASGFIFNRYAMGWYRQAPGKERELDADLTGGSTYYAVSVKGRFTISRDNAKKSVYLQLNSVTPEDTAVDYCAADVLPISTLLFRGPGFDSWGQGTQVTFSS”, the “polyreactivity (PSR sort gate)” value was “low polyreactivity”.

In the case of “QVQLVESGGGLVQAGGSLRLSCAASGFTFPSNAMGWYRQAPGKERELYAAISSTDSTNYADSVKGRFTISRDNAKNTFYLQMNSLKPEDTAVYYCAKRYPRYRYNTRGNDYWGQGSQVTVSS”, the “polyreactivity (PSR sort gate)” value was “low polyreactivity”.

For “QVQLVESGGGFVQAGGSLRLSCAASGSIFWTYAMGWYRPAPGNERELVATIPYSDGNTYYADSVKGRFTISRDHAKNTVYLQMNSLKPEDTAVYYGAADTVPDWQEYDYWGQGTQVTVSS”, the “polyreactivity (PSR sort gate)” value was “low polyreactivity”.

For “QVQLVESGGGLVQARGSLRLSCPASGLIFPAYAMGWYRQAPGKERELVATITWRGGSTYYADSVKGRFTISRDNAKNTVYLQMNSLKPEDTAVYYCATRPRYYYFRYDYWGQGTQVTVSS”, the “polyreactivity (PSR sort gate)” value was “high polyreactivity”.

For “QVQLVESGGGLVQAGGSLRLSCAASGFIIWYSAMGWYRQAPGKERELVAAIRSGGSTYYADSVKGRFTISRDNAMNTVYLQMNSLKPEDTAVYYCAAGKNVYYFSRSKYGYDYWGQGTQVTVSS”, the “polyreactivity (PSR sort gate)” value was “high polyreactivity”.

For “QVQLVESGGGLVQAGGSLRLSCADSGSIFSPYAMGWYRQAPGKERELVAAITNSGGRTYYADSVKGRFTISRDNAKNTVYLQMNSLKPEDTAVYYCNADYGKHHPDYYYWGQGTQVTVSS”, the “polyreactivity (PSR sort gate)” value was “low polyreactivity”.

In the case of “QVQLVESGGGLVQAGGSLRLICAASGRISLSNAMGWYRHAPGKEREFVAAITKRSDRTYYADSVKGRFTISRDNAKNTVYLQMNSLKPEETAVYYCAAKPLFGTRDDYWGQGTQVTVSS”, the “polyreactivity (PSR sort gate)” value was “low polyreactivity”.

With “QVQLVESGGGLVQAGGSLRLSCAASGITFQRYAMGWYRQAPGKERELVAAITRGGSTNYADSVKGRFTISRDNAKNTVYLQMNSLKPEDTAVYYCAAGYKITSVYGFYYWGQGTQVTVSS” the “polyreactivity (PSR sort gate)” value was “high polyreactivity”.

In the case of “QVHLVESGVGLVQAGGSLRLSCAASGFIFYYNAMGWYRQAPGKERELVAAISRTGGSTYYADSVKGRFTISRDNAKNTVYLQMNSLKPEDTAVYYCAAVGSPNRRPSRWEGSWGQGTQVTVSS”, the “polyreactivity (PSR sort gate)” value was “high polyreactivity”.

In the case of “QVQLVESGGGLVQAGGSLRLSCAASGSTFGYYAMGWYRQATGKERELVAAISSGGSTSYADSVKGRFTISRDNAKNTVYLQMNSLKPEDTAVYYCNTSYRKKKRYYYWGQGTQVTVSS”, the “polyreactivity (PSR sort gate)” value was “high polyreactivity”.

For “QVQLVESGGGLVQAGGSLRLSCADSASTLVVNGMGWYRQAPGKERELVASISSDGSTNYADSVKGRFTISRDNAKNTVYLQMNSLKPEDTAFYYCAADEGNGQASLSSNLYDYWGQGTQVTVSS”, the “polyreactivity (PSR sort gate)” value was “low polyreactivity”.

With “QFQLVESGGGLVQAGGSLRLSCAASGRIFYYNAMGWDRQAPGKERELVASISTGGGSTYYADSVKGRFTISRDNAKNTVYLQMNSLKTEDTAVYYCAARALTRSVPYGFYYWGQGTQVTVSS” the “polyreactivity (PSR sort gate)” value was “high polyreactivity”.

In the case of “QVQLVESGGGLVQAGGSLRLSCAASGSNIGWYAMGSYRQAPGKERELVAAISSSDGSTYYADSVKGRFTISRDNAKNTVYLQMNSLKPEDTAVYYCATDSDFTYAQYDYWGQGTQVTVSS”, the “polyreactivity (PSR sort gate)” value was “low polyreactivity”.

For “QVQLEESGGGLVQAGGSLRLSCAASGRTFYPYAMGWYRQAPGKEREFVARITWSGGRTYYADSVKGRFTISRDNAKNTVYLQMNSLKPEDTAVYYCAARGHDAVIATRYDYWGQGTQVTVSS”, the “polyreactivity (PSR sort gate)” value was “high polyreactivity”.

In the case of “QVQLVESGGGLVQAGGSLRLSCAASGSTFYIYAIGLYRQAPGKERELVAAINWRTGSTYYADSVMGRFTISRDNAKNTVYLQMNSLKPEDTAVYYWNAYTQHWSYWGQGTQVTVSS”, the “polyreactivity (PSR sort gate)” value was “high polyreactivity”.

In the case of “QDQLVESRGGLVQAGGSLRLSCAASGRIFGYNAMGWYTQAPGKERELVAGITSVGRTYYADSVKGRFTISRDNAKNTVYLQMNSLKPEDTAVYYCNAASYSLAVTAEYEDMDYWGQGTQVTVTS”, the “polyreactivity (PSR sort gate)” value was “low polyreactivity”.

With “QVQLVESGGGLVQAGGSLRLSCAASGSTFVANTMGWYRQAPGKERELGAAITSDGGSTSYADSVKGRFSISRDNAKNTVYLQMNSLKPEDTAVYHCAAEYGGSSAKYGYWGQGTQVTVSS” the “polyreactivity (PSR sort gate)” value was “low polyreactivity”.

For “QVQLVESGGGLVHAGGSLRLSCAASGSNFGYNAMGWYIQAPGKERELVAAITSIGGNTYADSVKGRFTISRDNAKYTVYLQMNSLKPEDTAVYYCAAERNTDPIQVVYEFDYWGQGSQVTVSS”, the “polyreactivity (PSR sort gate)” value was “low polyreactivity”.

With “QVQLVESGGGLVQAGGSLRLSCAASGRILVVNAMGWYRQAPGKERELVAAISTTGGRTYYADSVKGRFTISRDNAKNTDYLQMISLKPEDTAVYYCAKDDGRFGRTHEHDYWGHGTQVTVSS” the “polyreactivity (PSR sort gate)” value was “high polyreactivity”.

With “QVQLVESGGGLVQAGGSLRLSCAASGSTRYYMGWYRQAPGKEREMVAAISKSGGTTYYADSVKGRFTISRDNAMTTVYLQMTSLKPEDTAVYYCAAQRSRSYTYDYWGQGTQVTVSS” the “polyreactivity (PSR sort gate)” value was “high polyreactivity”.

For “QVQLVESGGGLVQAGGSLRLSCAASGSIFRIYAMGWSRQAPGKERELVAAIDSSGGSTYYADSVKGRFTISRDNAKNTVYLQMNSLKPEDTAVYYCAADFGSKSTPYDYWGQGTQVTVSS”, the “polyreactivity (PSR sort gate)” value was “low polyreactivity”.

For “QVQLVESGGGLVQAGGSLRLSCAASGRILPRNAMGWYRQAPGKERELVATIDYSVGSTYYADSVKGRFTISRDNAKNTVYLQMNSLKPEDTAVYYCNAQVLVRPIQGEYGYWGRGTQVTVSS”, the “polyreactivity (PSR sort gate)” value was “low polyreactivity”.

With “QVQIVESGGGLVQAGGSLRLSCASSGRIFNTNAMGWYRQAPGKERELVAGITDSGDSTYYADSVKGRFTISRDNAKNTVYLQMNSLKPQDSAVYFCATDPASPYIYYYWGQGTQVTVSS” the “polyreactivity (PSR sort gate)” value was “low polyreactivity”.

With “QVQLVESGGGLVQAGGSLRLSCAASGFILGHNAMGWYRQAPGKERELVSAITWRGRTYYADSVKGRFTISRDNAKNTVYLHMNSLKPEDTAVYYCASDTKFCYGYWGQGTQVTVSS” the “polyreactivity (PSR sort gate)” value was “high polyreactivity”.

For “QVQLVESGGGLVQAGGSLRLSCSASGSTFNVNAMGWYRQAPGKERELVAAIRTSGGSTYYADSVKGRFTISRDNAKNTVYLQMNSLKQEDTAVYYCNARVGSSSSRYYYWGQGTQVTVSS”, the “polyreactivity (PSR sort gate)” value was “low polyreactivity”.

With “QVQLVESGGGLVQAGGSLRLSCAASGITFKYYVMGWYRQAPGKERELVAAISYDGGSTYYADSVKGRFTISRDNAKNTVYLQMNSLKPEDTAVYYCAAPVWIDGDESGYEYDYWGQGTQVTVSS” the “polyreactivity (PSR sort gate)” value was “low polyreactivity”.

For “QVQLVESGGGLVQAGGSLRLSCAASGYTFYVYTMGWYRQAPGKERELVAAISGSGTSTYYADSVKGRFTISRDNAKNTVYLQMNSLKPEDTAVYYCAAEDYSRDVYSYDYWGQGTQVTVSS”, the “polyreactivity (PSR sort gate)” value was “low polyreactivity”.

With “QVQLVESGGGLVQAGGSLRLSCAASGSIFYYNAMGWYRQAPGKERELVATITQSGGGRTYYADSVKGRFTISRDNAKNTVYLQMNSLKPEDTAVYYCAAKPDKYKSYRYGYWGQGTQVTVSS” the “polyreactivity (PSR sort gate)” value was “low polyreactivity”.

For “QVQLVESGGGLVQAGGSLRLSCAASGRIFGWNAMGWYRQAPGKERELVAVIDTGGSTNYADSVKGRFTISRDNAKNTVYLQMNSLKPEDTAVYYCAAVTGIRYFTSEYDYWGQGTQVTVSS”, the “polyreactivity (PSR sort gate)” value was “low polyreactivity”.

In the case of “QVQLVESGGGLVQAGGSLRLSCAASGFTLYVYDMGWYRQAHGKERELVAAINGGGSTNYADSVKGRFTISRDNAKNTVYLQMNSLKPEDTAVYYCAAEDAYGRDVYYGSDYWGQGTLVTVSS”, the “polyreactivity (PSR sort gate)” value was “low polyreactivity”.

For “QVQLVESGGGLVQAGGSLRLSCAASGRIFWYYAMGWYRQAPGKERELVARISSSGGSTYYADSVKGRFTISRDNAKNTVYLQMNSLKTDYTAVYFWAKERYSGSSRYPMDYWGQGTQVTVSS”, the “polyreactivity (PSR sort gate)” value was “high polyreactivity”.

With “QVQLVESGGGLVQAGGSLRLSCAASGSTFSINAMGWYRQAPGKERELVAAITWRGTRTYYADSVKGRFTISRDNAKNTVYLQMNSLTPEDTAVYYCAATGSGQASYYYWGQGTQVTVSS” the “polyreactivity (PSR sort gate)” value was “high polyreactivity”.

For “QVQLVESGGGLVQAGGSLRLSCAASGFTFGLYGMGWYRQAPGKERELVAAISSSGGDTYYADSVKGRFTISRDNAKNTVYLQMNSLKPEDTAVYYCAATADWATHDYWGQGTQVTVSS”, the “polyreactivity (PSR sort gate)” value was “low polyreactivity”.

With “QVQLVESGGGLVQAGGSLRLSCAASGRTFQYYAMGWYRQAPGKERELVATISYSGGSTSYADSVKGRFTISRDNAKNTVYLQMNSLKPEDTAVYYCAADYYYGDALSPYYPHWDFYYWGQGTQVTVSS” the “polyreactivity (PSR sort gate)” value was “low polyreactivity”.

In the case of “QVQLVESGGGLVQAGGSLRLSCAASGSTFVYAMVWYRPAPGKERELVAAITTGDSTYYADSVKGRFTISRDNAKNTVYLQMNSLKPEDTAVYYCAAQWYTRDGEYGYWGQGTQVTVSS”, the “polyreactivity (PSR sort gate)” value was “low polyreactivity”.

For “QVQLVESGGGLVQAGGRLRLSCAATGRTFGRNAMGWYRQAPGKERELVAAINGNGGRTYYADSVKGRFTISRDNAKNTVYLQMNSLKPEDTAVYYCAADLRRSDYDYWGQGTKVTVSS”, the “polyreactivity (PSR sort gate)” value was “high polyreactivity”.

In the case of “QVQLVESGGGLVQAGGSLRLSCAASGRIFYEYAMGWYRQAPGKDRELVAAISNSGGSTYYAHSVKGRFTISRDNAKNTVYLQMNSLQPEDTAVYYCAATVRLPNGVRYGYWGQGTQVTGSS”, the “polyreactivity (PSR sort gate)” value was “high polyreactivity”.
